In the domain aggregation screens of Martell et al. (2025):

Assay: soluble fraction after stress (log2 fold change); higher = more stays soluble; pooled small domains, quantitative proteomics
Details: stress: pH 4
How it was run: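 With high-throughput quantitative proteomics, pooled custom libraries of small protein domains were measured after pH 4 stress. Each domain's soluble amount after the stress gives a fold change taken as aggregation propensity. Higher log2 values mean more of the domain stayed soluble.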

Row | Sequence | soluble fraction (log2)
1 | HMKQLQIPYSFAKRHGVLLRYEGDQAFIVRRDNTSMLALQEARRLLGHPAHYLLYSEQEFNQLLSASFA | -0.455
2 | HMKQLVVVPRVVSLSEGKAREDVGDRGLVVDRVEMDTLRTPYENTVTRQEPAADSRVPVGTRVTLWISPGV | -0.0648
3 | HMKQNSDDGEIRKIIIEILDNNLDNVNKYKSGRTNVLDFFVGQVMKQTRGQANPELTRSILTEELSN | 0.00746
4 | HMKQQTRAELLDEFAKAHAERGLYFNRDYEQGEIQALQPDKAREYLQSALEARTERQQASEQDR | 0.266
5 | HMKQTDQELAEMLRFRAAQRGLLMSDEVVNYVMTRVERSAKSLIMLLDRIDRAALAQARPVTIPLINEL | -0.606
6 | HMKQVEVPRLVGLTLREAQAVLGQVGLRIGLISRAALLASPREQIVEQIPVAGERNIATPYVNLLVNVP | -0.324
7 | HMKRDEYIAQLKKYLKRLPKKEYDSAIEYFTEYFDEAGPERELEVIQELGQPKEAAKEMLLQLLNE | -0.506
8 | HMKRDNETRRRIVAAAEELFRAKGLDGVNMRELAEMAGVNKGLLHYYFKTKQALFREILVGQMAL | -0.0908
9 | HMKRDRLYGITIYLLNHGRTSAKTLAEYFEVSVRTIQRDMDALSMAKIPIIAYPGSDGGYEIQEGYRL | -0.37
10 | HMKRDYELPAFIETYLKKNHVAIDTKSAAMIAEHIGADLSRLISELDKVMISLPDDDRRVTPDVVEREI | -0.436
11 | HMKREETLKALATKNANYVARSGRRYSFEPMNPYERRIIHTAVQEIEGVTSRSIGSGMDRRVLIEPEGGV | -0.234
12 | HMKRELFVEPGMRLEHTPSKTSGPVVSFIEGVIVVIKDQLGSEHRFDPVPGFFRHEGDLVALRSPLL | 0.044
13 | HMKRIDTILETFAKVHKHIPSKLILLGDGPELLDMRKIARSLHIEDDVLFLGKQDQVSKFYQMADLVLLL | 0.15
14 | HMKRIHLSDEEKTDLESLHYSSNDGKQRDRIKAVLLRSEGWTVPMISQALRIHETTVTRYLNDYREGKLKN | -0.143
15 | HMKRITKKELKQAIVDVFADKPGQSFNYKQLATIIGIKDDPTRRMITDILYELVQEERIVELYRGKFKMEM | -0.335
16 | HMKRLPFSFAKRFGVVVEDGEPPIVHHRDGASAETLLEVRRRLGQVFTLQRHDAEAFERLLTQAYQR | -0.837
17 | HMKRPEPESPEAERRSQRAADWLVRRDRGLTAAEQDEFLQWLAIDPRHGEWFALHRSVVGEFSA | -1.12
18 | HMKRQDFEFLVNLLRQNAGWDFDEEQYFVVDKKISNFIREKGYASVEDLIDELKVGAKPLISQVVESLAL | -2.01
19 | HMKRTFGEISPLPSGRYRARYRGPDGERYPAPVTFLSRMDAETWLSAQARKVSSGDWTPPVGVVA | 0.195
20 | HMKRWHVGDPIDALTAAGKVPSWSTIRQRFWKTIAALYPDIEQSERLQRGLAMLDEAGTSIELHHP | -0.615
21 | HMKRYLFEEVLAFLKHNDGKSFNYKQLGAAMEIDNESDRFALLETLEELKHQGFVIETDIGKYAAKE | -0.322
22 | HMKSDELTKRRRLQIIEAAERSFRKRGFHATTLREIAAEFGMSVGHIYNYFSGKDAILEALIHQKIDD | -0.429
23 | HMKSKHENLIDGLLKMISSMKPHDRLTPERQLAEEWAVSRMTLRRALEVLQFQGKIYTVPSSGLFVAEPK | -0.677

Row | Sequence | soluble fraction (log2)
24 | HMKSKPRVPFGSLVEMGILKPGSILFDPKGKIKTKVMVDGSIKYKETEGSIHKVAAQIMGTESYNGWTYW | -0.0629
25 | HMKSLDDVISKFRPTGSENKIDFRKRVISEIHAQGFFKIKGSVNHVAKALGVTRYTVYNYLDKLND | ≥ 0.43
26 | HMKSLLTHAEEFVRNNNGRWMLAETSSKESYSSKQNFYLRNNYSIISEIRDFYSVGDNLLVFGKFFT | -0.242
27 | HMKSNESAELGERMLNKALLALHTDSSKISDTQWQKLLRDYGAKNKQEILTDIGLGKRLNVMVAHQLMAMG | 0.0391
28 | HMKSNIGENIRQLREKREMSVERVARMLEVKPATVIGWESGRELPEPAELGLLAKLFDVTVEELN | -0.0738
29 | HMKSNKEKIYDFIQMHDTAEKEGGVSTTYIAQALSLQRTNVSSLLNALVEEGRIHKSNGRPVLYSIAG | 0.178
30 | HMKSPAQAAALKKLWAAIKQNEQGEVVEVLFHNRKLTDAGLVHLKGLANLQTLNLYDTKITGAGLVHL | -0.0712
31 | HMKSVLDDVAGLGPVRKKALLKAMGGFTRLRAASLDDILAVRAVPEEVAREVFAVLAQYNSVRNNDISE | ≥ 0.43
32 | HMKSVTAPLPGTVTQILVKVGDAVKAGDTVLMLEAMKMENSITAEAAGTVKAIRVEKGAQVQGGDVLIEM | -0.594
33 | HMKTAAKVLGESGGKPVTVQSGRYGPYVQLGTIRATLPKDLDQEAVTLDKALELIDAKAERSGK | -0.0034
34 | HMKTDFEIDITVKASSLRVVASPGGDELVGTVTRGDRVTQLATPKDGWILIKMTDGRLGYVPESLLLFP | -0.89
35 | HMKTEIGQAMRKLRKAKKMTQDTLAEKLGVAPANISRYEKGQQGIEVDKLPTLADALGVSVPEFFAIASG | -0.142
36 | HMKTELAYDFHSRIRDARIREGLSQVDLAKRMNEKIAVIQKAENGIRPTDSLIAKFSKALSVELYVE | -0.604
37 | HMKTGIIYGVNGPVIYLKGDTGFKISEMVYVGPEKLVGEVIGLKKHMTTVQVFEETTGLKPGETVIGTGDA | -0.0122
38 | HMKTGTVQDFIAKYGMSSKSPSSWFNSLTQIQKAEAKALKAQSGLTWNEWYEKNIYNGDGSNL | -0.119
39 | HMKTKHISIAEGMSLYTRDRSPFYWGYLNIEGVIHKKSLKTDVVDEAIKLLSIWKNELLNSITK | -0.414
40 | HMKTKKYKGVYKDSKGKIYFQIELGVDPITGKRIQKKGRKNQQGLPFNSFKEAYEEILRLKHEFVNSTIN | 0.00285
41 | HMKTKTAPPDSIPPAWLKESATLRPDLNQAQIKASAEVFLDHHRAKGTTLADWRPAWRNWIRRERA | 0.0552
42 | HMKTLDAFFDQARDAYKKLKKDGDIDNLKVLRNQLQTVRETQGDAVRKKSKEEYRRLVDIIDDIDGLLAAF | -0.154
43 | HMKTLSKEDIGFLSDEAVGEMRKAVANGEMLELRALIDQVGEKNPIVAEKLLTLVKQYDYENLNRVLE | -0.802
44 | HMKTPAPRETILSLFRQTPDGFVSGERISDELGVSRTAVWKHIRNLRQAGYQIEAIPSRGYQLQQS | -0.0693
45 | HMKTQFGTIVKQLRERKGMDQKQLGEIVGVSDKTVSSWEINRTEPKMGIVQQLADYFGVSTDYLIKG | 0.00995
46 | HMKTRQVTVRNGRIEIFDKRFSTERLVFTAANLPVLEREGEVFTAGIPDSRDFINLWARDGSFAGSVPRV | -1.51

Row | Sequence | soluble fraction (log2)
47 | HMKTTSYAKLLRFLRTERDLSQITVAKQLGLSRASYLALEHGSRELSLSEAVKVTTLYGIRIDDLIVNH | -0.899
48 | HMKTTVEVSPIARPGAVASGSVKFGSGVTAEWMLDQYGRLGLDKPTGKPTEQDIKEFQIELQKAL | 0.122
49 | HMKVDLSEEEKTILELLKKESPQELETIKAASTLSNKKWDKAIKGLRKHNLAKVNKTDDGLFVELE | 0.105
50 | HMKVDRLISIVLVLLDKNRISAQELADMFEVSLRTIYRDIDAIELAGIPIRSTSGVGGGFEIMPNY | -1.19
51 | HMKVKGVYQLDNGYWGYRFTMLVNGKTVSQRRVKDESGNPFKTEKKAEKARLVAMAEEQTKANK | 0.125
52 | HMKVMTNAELGRIIKEARIARRMTQSEVVGDFITRNMLSQIENGNAAPSMRTLQYLMDVLDIHINIE | -0.751
53 | HMKVNIGDQVYNQMKDQIMSGVWVPGEKIPSENQLMEVFGVSRGTVRQAIQKLSAVGLLETRRGEGSYVGQ | -0.0128
54 | HMKVQLGMNTREVRGIMGKPFSEDTFVEGEKRVDVLHYKEAVRVKTQGFILTTSLRFENDSLTAI | -1.02
55 | HMKVRVFIERSNDGYSAYMPDDNNLPFGLTGDGKTAQEAMQDFLLARDEMKEFFIEEGKEFPEVEFDFS | -1.49
56 | HMKVSAEEQNILDALQAAGGYLPFHDKSNPEEIYEAFGISKKTFKMIIGSLYKQQKINLTQTGIQLII | -0.637
57 | HMKVSDPEAIKLIEQAQVKVIPFLDISEAADIQIALEELKNSEGTGQTDSAKVRLRNLLSPFSYL | -1.12
58 | HMKVSFEIEINGVTKSINSINEAKEAISELQDIMDNSTFGSEEFKNAATQIDKLQNKLVEALDK | -1.4
59 | HMKVSVDLSMFEDDQTADRNAAVAWVVDELGAGGVDRTILMQLQSTGWSAEQSRAILDLASAGR | -0.324
60 | HMKVTGSVQKKKGYYYIVVRLPTKNGTQYEQKQKWFNTKLKATPRNKTAAQVILAEKLTEYGGIV | ≥ 0.43
61 | HMKVWYAGINAQRVGPMTLGAMEQQIRYGRVLFSTLIWKSPMPQWVPAGDVPELRRLLDEHMLNQMP | -0.676
62 | HMKYFDRDLINYIQKTLAGKKIDFHEKIVPLIIELAGSDIRRVDEIIDMAEYSGKGMHVSEEMIRELAGDV | -1.72
63 | HMKYKTKRDMILALMKKEILSGELKPRTRLLISEVASRYEVSEIPVREAFQVLIQEDLVRSTGAGFEVT | 0.233
64 | HMKYPVYLQLADLIERKINKNEYPLGSKIPSERELIDAFGISRMTVRKAIEVLIEKGLLTRQHGKGTYVSQ | 0.182
65 | HMKYSNDFDKVSYSLGLSIASNLISSGVKTLNAEAFNDGLATVFEGRMPEINPDEANKILQNFFEGLQKE | -0.632
66 | HMKYSQAMIAQIIKHFHLPNNTVVTGEDVDAILLRSVDGGDGIYGGDVVSIWKYYKKQNDIQEIVT | -0.764
67 | HMLAEEDRRRAERPGLDGNAVMVHLGIGPGRHVGEALAFLLEVRRSEGDLAVAELKSRIDAWWADR | -1.49
68 | HMLAERKERDKAELKELILDAAKKILLKNGQEGLSIRKIATTVEYSPATIYLYFKDKDEILHELMEMG | 0.151
